Article PMC8887127

B1: 13-mer BD4 target duplex (dsDNA)
DNA 1: GGACCCACGCAGC
DNA 2: GGCTGCGTGGGTC
B2: mutant BD4 probe (dsDNA)
DNA 1: CTAAACCTTTCTACGCTAAAACCTGTCTT
DNA 2: AAGACAGGTTTTAGCGTAGAAAGGTTTAG
B3: wild-type BD4 probe (dsDNA)
DNA 1: CTAAACACCCACGCGCCGTGGGTTGTCTT
DNA 2: AAGACAACCCACGGCGCGTGGGTGTTTAG

Assays:
[1] = target: T1, BEND3-BD4 (crystal construct) (Homo sapiens, UniProt Q5T5X7 715-828); experiment: X-ray crystallography
T1 sequence: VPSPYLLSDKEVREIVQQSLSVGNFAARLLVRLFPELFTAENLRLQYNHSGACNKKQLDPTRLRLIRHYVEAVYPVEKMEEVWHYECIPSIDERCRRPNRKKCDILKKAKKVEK

[2] = target: T2, GST-BEND3-BD4 (gel shift construct) (Homo sapiens, UniProt Q5T5X7 546-828); experiment: EMSA
T2 sequence: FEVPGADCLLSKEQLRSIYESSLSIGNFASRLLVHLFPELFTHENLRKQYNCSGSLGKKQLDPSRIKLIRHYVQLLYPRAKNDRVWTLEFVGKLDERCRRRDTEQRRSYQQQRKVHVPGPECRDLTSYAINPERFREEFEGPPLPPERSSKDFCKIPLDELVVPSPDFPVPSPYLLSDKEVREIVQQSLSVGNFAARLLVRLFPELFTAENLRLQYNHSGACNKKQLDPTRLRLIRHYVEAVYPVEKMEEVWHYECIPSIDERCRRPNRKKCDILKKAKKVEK

| Binder | binding result [1] | binding result [2] |
| --- | --- | --- |
| B1 | binds | – |
| B2 | – | no binding |
| B3 | – | binds |
